Results from US20170281764A1 (JN BIOSCIENCES, published 2017).

Assays:
Assay in all cases: flow cytometry on CHO-K1 cells transiently expressing HA-tagged TIGIT mutant
[1] = biological target: T1, HA-tagged human TIGIT with mutation N49A, on CHO-K1 cells (human, UniProt Q495A1 22-244)
T1 sequence: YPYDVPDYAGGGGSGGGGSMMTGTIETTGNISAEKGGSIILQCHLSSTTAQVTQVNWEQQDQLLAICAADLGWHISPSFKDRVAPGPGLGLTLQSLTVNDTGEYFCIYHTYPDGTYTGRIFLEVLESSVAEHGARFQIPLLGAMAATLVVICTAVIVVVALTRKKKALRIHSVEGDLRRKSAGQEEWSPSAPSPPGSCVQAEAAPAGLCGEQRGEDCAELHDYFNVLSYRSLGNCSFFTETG
Description: (§1) For flow cytometry analysis of the anti-hTIGIT antibody binding epitope, HA-tagged human TIGIT proteins with or without single amino acid mutation were transiently transfected into CHO-K1 cells. After 24 hr, transfected cells were suspended in HBSS buffer (Thermo Fisher Scientific, Cat#14175095), and incubated with HuTIG1-IgG1.AA antibody at varying concentrations in 50 μL volume. After 1 hr incubation at 4° C., cells were washed and a second incubation with 50 μL Alexa488 conjugated anti-human IgG(H+L) secondary antibody (Thermo Fisher Scientific, Cat#A-11013) was performed to detect cells bound by antibody. Cells were incubated with an anti-HA antibody (Sigma, Cat# H7411) as a positive control, and non-transfected CHO-K1 cells were used as a negative control. The cells were analyzed on an Attune NxT Cytometer (Thermo Fisher Scientific) and the data were processed using FlowJo software. For each mutant, the saturating antibody binding MFI (mean fluorescence intensity) were normalized to 100% POC (percent of control), and no primary antibody binding control MFI were normalized to 0% POC. Data were then fit to a four parameter non-linear sigmoidal curve using GraphPad Prism 7 curve fitting using following formula: Y=Bottom+(Top−Bottom)/(1+10^{((Log EC}^₅₀^{-X)*HillSlope)}).
(§2) All of these residues co-locate to one discrete region on the front ([…] structure of the TIGIT IgV extracellular domain (FIG. 28).

[2] = biological target: T2, HA-tagged human TIGIT with mutation D51A, on CHO-K1 cells (human, UniProt Q495A1 22-244)
T2 construct: Built as for m17
T2 sequence: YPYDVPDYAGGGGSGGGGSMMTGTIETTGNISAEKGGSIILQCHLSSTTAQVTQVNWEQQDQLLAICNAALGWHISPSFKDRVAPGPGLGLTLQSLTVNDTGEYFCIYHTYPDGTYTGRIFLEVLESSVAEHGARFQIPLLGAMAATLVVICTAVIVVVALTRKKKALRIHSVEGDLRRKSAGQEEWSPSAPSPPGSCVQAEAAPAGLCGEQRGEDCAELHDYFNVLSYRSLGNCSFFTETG
Description: as §1, §2

[3] = biological target: T3, HA-tagged human TIGIT with mutation H90A, on CHO-K1 cells (human, UniProt Q495A1 22-244)
T3 construct: Built as for m17
T3 sequence: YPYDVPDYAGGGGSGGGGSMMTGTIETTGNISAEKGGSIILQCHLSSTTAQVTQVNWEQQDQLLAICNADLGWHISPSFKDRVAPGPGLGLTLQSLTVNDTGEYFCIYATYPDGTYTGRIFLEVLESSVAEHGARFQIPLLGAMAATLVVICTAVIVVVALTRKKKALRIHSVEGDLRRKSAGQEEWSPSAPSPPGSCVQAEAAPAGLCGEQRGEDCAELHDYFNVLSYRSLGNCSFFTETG
Description: as §1, §2

[4] = biological target: T4, HA-tagged human TIGIT with mutation N37A, on CHO-K1 cells (human, UniProt Q495A1 22-244)
T4 construct: Built as for m17
T4 sequence: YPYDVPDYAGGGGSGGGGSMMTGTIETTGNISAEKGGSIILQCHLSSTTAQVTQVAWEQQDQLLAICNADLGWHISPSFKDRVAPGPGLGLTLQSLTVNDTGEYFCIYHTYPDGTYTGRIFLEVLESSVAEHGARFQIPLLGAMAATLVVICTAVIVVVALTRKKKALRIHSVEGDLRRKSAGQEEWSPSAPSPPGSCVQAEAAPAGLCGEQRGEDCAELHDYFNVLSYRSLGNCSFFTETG
Description: as §1, §2

[5] = biological target: T5, HA-tagged human TIGIT with mutation Q35A, on CHO-K1 cells (human, UniProt Q495A1 22-244)
T5 construct: Built as for m17
T5 sequence: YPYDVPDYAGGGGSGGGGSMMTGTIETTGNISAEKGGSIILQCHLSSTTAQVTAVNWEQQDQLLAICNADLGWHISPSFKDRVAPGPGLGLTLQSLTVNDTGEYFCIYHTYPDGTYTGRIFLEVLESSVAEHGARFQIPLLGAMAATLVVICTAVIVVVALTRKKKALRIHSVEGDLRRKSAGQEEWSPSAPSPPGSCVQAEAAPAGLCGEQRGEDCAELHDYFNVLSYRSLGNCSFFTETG
Description: as §1, §2

Measured: fold decrease in binding affinity against wild type human TIGIT

B1: HuTIG1-IgG1.AA (humanized IgG1/kappa form of TIG1, L234A/L235A) (antibody)
heavy: not shown
light: DIQMTQSPSSLSASVGDRVTITCRASKSISKYLAWYQQKPGKAPKLLIYSGSTLQSGVPSRFSGSGSGTDFTLTISSLQPEDFATYYCQQHNEYPWTFGGGTKVEIKRTVAAPSVFIFPPSDEQLKSGTASVVCLLNNFYPREAKVQWKVDNALQSGNSQESVTEQDSKDSTYSLSSTLTLSKADYEKHKVYACEVTHQGLSSPVTKSFNRGEC
notes: Mature full chains; also called humanized TIG1
> 10 fold: all assays above
